{"source": "patent US11813280B2", "about": "“Reducing beta-catenin and IDO expression to potentiate immunotherapy” (Dicerna Pharmaceuticals, Inc., priority 2018, dated 2023)", "molecules": {"B1": {"name": "BCAT1: nucleic acid inhibitor molecule targeting the β-catenin gene; sense strand SEQ ID NO:1, antisense strand SEQ ID NO:2; formulated in EnCore lipid nanoparticles (nucleic acid)", "sense": "AGAAUACAAAUGAUGUAGAAACAGCC", "antisense": "UAGCUAUCGTGGCUGUUUCUACAUCAUUUGUAUUCUGC", "modifications": "formulated in lipid nanoparticles, chemistry not given here"}}, "key": {"[1]": {"tested_on": "advanced melanoma", "conditions": "combined with pembrolizumab; Phase II study; cited from earlier work"}, "[2]": {"target": "T1, IDO2 (Homo sapiens, UniProt Q6ZQW0)", "T1 sequence (Q6ZQW0 1-407)": "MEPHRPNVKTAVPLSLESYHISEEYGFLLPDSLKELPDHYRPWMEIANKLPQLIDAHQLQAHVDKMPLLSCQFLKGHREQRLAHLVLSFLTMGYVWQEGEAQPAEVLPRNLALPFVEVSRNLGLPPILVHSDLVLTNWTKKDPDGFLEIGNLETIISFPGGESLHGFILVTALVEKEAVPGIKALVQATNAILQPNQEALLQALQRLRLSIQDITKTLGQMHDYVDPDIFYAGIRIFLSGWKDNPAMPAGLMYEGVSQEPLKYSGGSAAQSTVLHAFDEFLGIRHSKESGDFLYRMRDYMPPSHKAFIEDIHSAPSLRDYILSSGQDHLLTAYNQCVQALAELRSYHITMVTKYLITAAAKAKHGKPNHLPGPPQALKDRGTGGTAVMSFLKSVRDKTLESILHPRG", "conditions": "Pendergast et al., Cancer Research, 2017; cited from earlier work"}, "[3]": {"target": "IDO1 (Homo sapiens, UniProt P14902)", "sequence (P14902 whole entry, species assumed)": "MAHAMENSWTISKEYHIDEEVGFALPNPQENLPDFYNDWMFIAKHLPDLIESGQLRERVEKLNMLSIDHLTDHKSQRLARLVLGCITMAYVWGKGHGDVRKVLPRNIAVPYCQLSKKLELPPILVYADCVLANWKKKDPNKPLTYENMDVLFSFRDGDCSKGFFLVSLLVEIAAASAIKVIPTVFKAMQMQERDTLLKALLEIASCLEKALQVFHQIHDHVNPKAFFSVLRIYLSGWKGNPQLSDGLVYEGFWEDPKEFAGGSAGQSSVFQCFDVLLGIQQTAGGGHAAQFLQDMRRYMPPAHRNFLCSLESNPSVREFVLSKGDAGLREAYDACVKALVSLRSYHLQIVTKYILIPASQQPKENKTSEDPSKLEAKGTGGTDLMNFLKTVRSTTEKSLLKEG", "conditions": "cited from earlier work"}, "[4]": {"conditions": "Siu et al., AACR abstract CT116, 2017; cited from earlier work"}, "[5]": {"tested_on": "4T1 tumors", "test": "4T1 tumor growth study", "assay_type": "in vivo, Balb/C mice", "experimental": "(§1) 6-8-week-old immunocompetent mice (C57BL/6 or Balb/C) were injected subcutaneously with 1.5×10^6B16F10 or 1.5×10^6 4T1 tumor cells under the right shoulder. Tumor volume was measured every 2-3 days a week to monitor tumor growth. Dosing was initiated when the tumors reached about 150-200 mm^3. […] BCAT1 formulated LNP or Placebo (scrambled CTNNB1 dsRNAi) formulated LNP was given intravenously via lateral tail vein at a total volume of 10 ml/kg. Immunotherapy treatments (anti-PD-1 antibody) were given intraperitoneally at a volume of 10 ml/kg.\n(§2) Mouse cell lines B16F10 and 4T1 cells were obtained from ATCC (Manassas, Va.) and grown in RPMI/DMEM medium supplemented with 10% FBS. B16F10 cells is a murine melanoma cell line with no Wnt activation or IDO1 activation. 4T1 is a murine breast cell line with Wnt activation and constitutive activation of IDO1.\nIn another study, 4T1 tumor cells were implanted in Balb/C mice and 4 days post-implant, the mice were randomized into two groups and treated with placebo or BCAT1. This dosing cycle was then repeated on days 9 and 10. Tumor growth was monitored by measuring the tumor sizes over the course of the treatment period. […] FIG. 1C.\n(§3) Tumors were collected 48 hours after the last dose and were subjected to immunohistochemistry to look at β-catenin, CD8 and IDO1 levels. […] FIG. 3B. FIG. 3B. […] Tumor growth was monitored by measuring the tumor sizes over the course of the treatment period. […] FIG. 3C."}, "[6]": {"tested_on": "multiple tumor types", "test": "Delivery of LNP formulated BCAT1 to tumors in models", "assay_type": "in vivo", "excerpt": "The BCAT1 construct was formulated in EnCore lipid nanoparticles (LNP)."}, "[7]": {"tested_on": "4T1 tumors", "test": "Immunohistochemistry of 4T1 tumors for β-catenin, CD8 and IDO1", "assay_type": "in vivo, Balb/C mice", "conditions": "BCAT1 3 mg/kg days 6, 7, 12, 13 post-implant, tumors 48 hours after last dose, vs placebo", "experimental": "as §1, §2\nBalb/C mice were implanted with 4T1 tumors. At six days post 4T1 tumor cell implantation, with the average tumor size of 150-200 mm^3, mice were sorted into two groups and were treated with either placebo or BCAT1 at 3 mg/kg on days 6 and 7 and days 12 and 13 post-implant, as shown in FIG. 1A. 48 hours after the last dose, tumors were collected and assayed by immunohistochemistry for β-catenin, CD8 and IDO1 protein levels.\nas §3"}, "[8]": {"tested_on": "MMTV-Wnt tumors", "test": "Immunohistochemistry of MMTV-Wnt tumors for β-catenin, CD8 and IDO1", "assay_type": "in vivo, mice", "conditions": "BCAT1 5 mg/kg per dose study days 1, 2, 3; tumors 24 hours after last dose; 5 mg/kg", "experimental": "(§4) In the MMTV-Wnt mouse model, mammary gland specific overexpression of Wnt1 with MMTV-LTR leads to spontaneous breast tumors with activated Wnt/β-catenin signaling. MMTV-Wnt mammary tumors spontaneously grow in mice in 3-6 months from the time of birth with Wnt pathway activation.\nTo see the effect of β-catenin inhibition on T cell infiltration and IDO1 levels in spontaneous tumors, the MMTV-Wnt1 model was used. The tumors were collected 24 hours after the last dose and subjected to immunohistochemistry to determine β-catenin, CD8, and IDO1 levels.\nTumors were collected 24 hours after the last dose and subjected to immunohistochemistry to determine β-catenin, CD8 and IDO1 levels."}, "[9]": {"tested_on": "B16F10 tumors", "test": "B16F10 tumor growth study", "assay_type": "in vivo, C57BL/6 mice", "conditions": "BCAT1 single agent 3 mg/kg days 5, 6, 11, 12", "experimental": "as §1, §2\nIn a similar study, B16F10 tumor cells were implanted in C57BL/6 mice and at day 5 post-implant, the mice were randomized into two groups and treated with placebo or BCAT1. This dosing cycle was then repeated on days 11 and 12. Tumor growth was monitored by measuring the tumor sizes over the course of the treatment period. […] FIG. 6C.\nTumor growth was monitored by measuring the tumor sizes over the course of the treatment period. […] FIG. 8C. […]"}, "[10]": {"tested_on": "4T1 tumors", "test": "Flow cytometry of surface markers in 4T1 tumors", "assay_type": "in vivo, Balb/C mice", "conditions": "BCAT1 3 mg/kg days 6, 7, 12, 13, tumors 24 hours after last dose, vs PBS", "experimental": "In another similar study, mice bearing 4T1 tumors were treated with PBS or BCAT1 at 3 mg/kg on days 6 and 7 and days 12 and 13 post-implant, as shown in FIG. 2A. Tumors were collected 24 hours after the last dose and subjected to flow cytometry to measure surface markers on single-cell suspensions prepared from the extracted tumors. […] FIG. 2B. […] FIG. 2B. No effect was observed on the immunosuppressive MDSC cells. FIG. 2B."}, "[11]": {"tested_on": "B16F10 tumors", "test": "Flow cytometry of immune cell infiltrate in B16F10 tumors", "assay_type": "in vivo, C57BL/6 mice", "conditions": "BCAT1 3 mg/kg days 6, 7, 12, 13, tumors 24 hours after last dose", "experimental": "A similar study was run to monitor the levels of immune cell infiltrate after two rounds of BCAT1 treatment. B16F10 tumors were treated with PBS, placebo, or BCAT1 at 3 mg/kg on days 6 and 7 post-implant and again on days 12 and 13 post-implant, as shown in FIG. 7A. Tumors were collected 24 hours after the last dose and were subjected to flow cytometry. […] The MDSC cell population was not altered. FIG. 7B."}, "[12]": {"tested_on": "B16F10 tumors", "test": "Immunohistochemistry of B16F10 tumors for β-catenin, CD8 and IDO1", "assay_type": "in vivo, C57BL/6 mice", "conditions": "BCAT1 3 mg/kg days 6, 7, 12, 13 post-implant, tumors 48 hours after last dose, vs placebo", "experimental": "as §1, §2\nC57BL/6 mice were implanted with B16F10 tumors. At six days post B16F10 tumor cell implantation, with the average tumor size of 200 mm^3, mice were sorted into two groups and were treated with either placebo or BCAT1 at 3 mg/kg on days 6 and 7 post-implant and again on days 12 and 13 post-implant, as shown in FIG. 6A. 48 hours after the last dose, tumors were collected and assayed by immunohistochemistry for β-catenin, CD8 and IDO1 protein levels. […] FIG. 6B.\nTumors were collected 48 hours after the last dose and were subjected to immunohistochemistry to analyze β-catenin, CD8 and IDO1 levels. […] FIG. 8B."}, "[13]": {"tested_on": "MMTV-Wnt tumors", "test": "MMTV-Wnt tumor growth study", "assay_type": "in vivo, mice", "experimental": "as §4\nIn another study, MMTV-Wnt tumor-bearing mice were treated with BCAT1 at 3 mg/kg on study days 1, 2, 6, and 7 and tumor growth was monitored."}}, "note": "Entries after “also recorded” stand apart in the source; their conditions may differ."}
{"molecule": "Cn1cc(C[C@@H](N)C(=O)O)c2ccccc21", "note": "[indoximod, 1-methyl-D-tryptophan]", "values": [{"measurement": "efficacy in patients with advanced melanoma", "setting": "[1]", "value": "shown efficacy"}, {"measurement": "inhibition of IDO2", "setting": "[2]", "value": "indirectly inhibit IDO2"}]}
{"molecule": "O=C1CC(c2c[nH]c3ccc(F)cc23)C(=O)N1", "note": "(stereo not drawn) [PF-06840003]", "values": [{"measurement": "enzymes targeted / inhibited (IDO1, TDO)", "setting": "[3]", "value": "selectively target IDO1"}]}
{"molecule": "C[C@@H](C(=O)Nc1ccc(Cl)cc1)C1CCC(c2ccnc3ccc(F)cc23)CC1", "note": "(stereo partly drawn) [BMS-986205]", "values": [{"measurement": "tolerability in patients with advanced cancers", "setting": "[4]", "value": "safely tolerated"}]}
{"molecule": "B1", "values": [{"measurement": "tumor growth inhibition", "setting": "[5]; BCAT1 alone 3 mg/kg days 4, 5, 9, 10, vs placebo", "value": "about 40%"}, {"measurement": "anti-tumor efficacy (tumor volume)", "setting": "[5]; IDOi orally 100 mg/kg per dose twice daily days 4 and 6, BCAT1 iv 3 mg/kg days 5 and 6, anti-PD-1 antibody ip 5 mg/kg days 7 and 8, single, double or triple agents", "value": "modest anti-tumor efficacy"}, {"measurement": "tumor growth as compared to placebo", "setting": "[5]; two cycles of BCAT1 treatment", "value": "inhibits tumor growth"}, {"measurement": "Delivery of BCAT1 to Various Tumor Types", "setting": "[6]; HCT116, DLD1, HL60", "value": "Negative: HCT116, DLD1, HL60"}, {"measurement": "Delivery of BCAT1 to Various Tumor Types", "setting": "[6]; LNP formulated BCAT1, tumor types of Table I (subcutaneous, orthotopic, disseminated, metastatic xenograft, PDX, GEM)", "value": "effectively deliver the nucleic acid payload to multiple tumor types"}, {"measurement": "CD8 protein levels / CD8 T-cell infiltration (immunohistochemistry)", "setting": "[7]", "value": "increases"}, {"measurement": "IDO1 protein levels (immunohistochemistry)", "setting": "[7]", "value": "did not reduce the IDO1 levels significantly; also recorded: does not significantly reduce"}, {"measurement": "β-catenin protein levels (immunohistochemistry)", "setting": "[7]", "value": "decreases"}, {"measurement": "CD8 levels / CD8 T-cell infiltration (immunohistochemistry)", "setting": "[8]", "value": "increases"}, {"measurement": "IDO1 levels (immunohistochemistry)", "setting": "[8]", "value": "unchanged; also recorded: does not significantly reduce"}, {"measurement": "β-catenin levels (immunohistochemistry)", "setting": "[8]", "value": "decreases"}, {"measurement": "tumor growth as compared to placebo", "setting": "[9]", "value": "did not significantly inhibit tumor growth; also recorded: does not significantly inhibit tumor growth"}, {"measurement": "LAG-3 checkpoint, flow cytometry", "setting": "[10]", "value": "significant increases"}, {"measurement": "MDSC cells, flow cytometry", "setting": "[10]", "value": "No effect; also recorded: does not significantly alter"}, {"measurement": "PD-1 checkpoint, flow cytometry", "setting": "[10]", "value": "significant increases"}, {"measurement": "Regulatory T cells (Tregs), flow cytometry", "setting": "[10]", "value": "significantly increased; also recorded: increases"}, {"measurement": "Tim-3 checkpoint, flow cytometry", "setting": "[10]", "value": "significant increases"}, {"measurement": "cytotoxic T-cells (CD8+), flow cytometry", "setting": "[10]", "value": "significant increases"}, {"measurement": "CD8 T cells, flow cytometry", "setting": "[11]", "value": "elevated; also recorded: increases"}, {"measurement": "LAG-3 checkpoint, flow cytometry", "setting": "[11]", "value": "elevated; also recorded: increases"}, {"measurement": "MDSC cell population, flow cytometry", "setting": "[11]", "value": "not altered; also recorded: does not significantly alter"}, {"measurement": "PD-1 checkpoint, flow cytometry", "setting": "[11]", "value": "elevated; also recorded: increases"}, {"measurement": "Tim-3 checkpoint, flow cytometry", "setting": "[11]", "value": "elevated; also recorded: increases"}, {"measurement": "level of Tregs, flow cytometry", "setting": "[11]; as compared to PBS", "value": "did not significantly change; also recorded: does not significantly alter"}, {"measurement": "CD8 protein levels / CD8 T-cell infiltration (immunohistochemistry)", "setting": "[12]", "value": "increases"}, {"measurement": "IDO1 protein levels (immunohistochemistry)", "setting": "[12]", "value": "decreased; also recorded: reduces"}, {"measurement": "β-catenin protein levels (immunohistochemistry)", "setting": "[12]", "value": "decreases"}, {"measurement": "tumor growth inhibition", "setting": "[13]; BCAT1 alone 3 mg/kg study days 1, 2, 6, 7", "value": "about 50%"}, {"measurement": "tumor growth as compared to placebo", "setting": "[13]; two cycles of BCAT1 treatment", "value": "inhibits tumor growth"}]}
